In US20090191208A1 (INOTEK PHARMACEUTICALS, published 2009):

What was measured:
[1] = target: T1, Salmonella flagellin (Salmonella, UniProt P06177 2-505, limits assumed); assay: BIACore (SPR); Salmonella flagellin
T1 sequence: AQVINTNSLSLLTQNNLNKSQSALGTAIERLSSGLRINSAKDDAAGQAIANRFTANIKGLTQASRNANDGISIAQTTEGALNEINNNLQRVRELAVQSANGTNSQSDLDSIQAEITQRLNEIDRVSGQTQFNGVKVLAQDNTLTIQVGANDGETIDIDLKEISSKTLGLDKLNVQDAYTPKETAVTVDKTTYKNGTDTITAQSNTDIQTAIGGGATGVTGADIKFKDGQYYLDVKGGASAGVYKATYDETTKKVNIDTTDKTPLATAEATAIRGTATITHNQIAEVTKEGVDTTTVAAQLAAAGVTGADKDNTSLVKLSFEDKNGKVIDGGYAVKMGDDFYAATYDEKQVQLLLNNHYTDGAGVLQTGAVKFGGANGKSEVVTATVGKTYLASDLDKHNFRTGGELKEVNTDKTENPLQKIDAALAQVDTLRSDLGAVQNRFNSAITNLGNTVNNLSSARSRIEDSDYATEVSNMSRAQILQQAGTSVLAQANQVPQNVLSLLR

[2] = target: T2, Pseudomonas flagellin (Pseudomonas, UniProt P21184 2-394); assay: BIACore (SPR); Pseudomonas flagellin
T2 chain: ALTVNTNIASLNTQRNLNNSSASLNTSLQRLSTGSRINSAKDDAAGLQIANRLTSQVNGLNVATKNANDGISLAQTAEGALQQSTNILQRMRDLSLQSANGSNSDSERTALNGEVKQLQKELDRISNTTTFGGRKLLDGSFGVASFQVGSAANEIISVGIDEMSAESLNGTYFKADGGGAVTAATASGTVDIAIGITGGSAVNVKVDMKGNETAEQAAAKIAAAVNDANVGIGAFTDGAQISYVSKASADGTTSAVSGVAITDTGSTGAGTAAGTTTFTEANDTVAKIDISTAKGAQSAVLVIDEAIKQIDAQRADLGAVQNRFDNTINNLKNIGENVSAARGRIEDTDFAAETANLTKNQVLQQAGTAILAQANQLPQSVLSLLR

[3] = target: T3, recombinant SM flagellin protein (a/a 1-156) (Salmonella muenchen, UniProt P06177 1-156); assay: ELISA of hybridoma supernatants for anti-SM flagellin reactivity
T3 construct: The antigen is amino acids 1-156 of S. muenchen flagellin, expressed in E. coli from pET 30C behind the His tag; also called recombinant S. muenchen flagellin; fusion protein; not shown: N-terminal His tag and vector-encoded residues of pET 30C
T3 sequence: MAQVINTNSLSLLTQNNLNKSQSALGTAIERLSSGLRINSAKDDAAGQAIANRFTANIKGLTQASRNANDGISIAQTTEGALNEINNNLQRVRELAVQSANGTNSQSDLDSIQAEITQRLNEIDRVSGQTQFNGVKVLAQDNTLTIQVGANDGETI

[4] = target: T4, Salmonella muenchen Flagellin (supplied by Inotek) (Salmonella muenchen, UniProt P06177 2-505); assay: competition ELISA on plate-coated S. muenchen flagellin; competitor biotinylated mAb 741 at 0.6 µg/ml; mouse control antibody
T4 sequence: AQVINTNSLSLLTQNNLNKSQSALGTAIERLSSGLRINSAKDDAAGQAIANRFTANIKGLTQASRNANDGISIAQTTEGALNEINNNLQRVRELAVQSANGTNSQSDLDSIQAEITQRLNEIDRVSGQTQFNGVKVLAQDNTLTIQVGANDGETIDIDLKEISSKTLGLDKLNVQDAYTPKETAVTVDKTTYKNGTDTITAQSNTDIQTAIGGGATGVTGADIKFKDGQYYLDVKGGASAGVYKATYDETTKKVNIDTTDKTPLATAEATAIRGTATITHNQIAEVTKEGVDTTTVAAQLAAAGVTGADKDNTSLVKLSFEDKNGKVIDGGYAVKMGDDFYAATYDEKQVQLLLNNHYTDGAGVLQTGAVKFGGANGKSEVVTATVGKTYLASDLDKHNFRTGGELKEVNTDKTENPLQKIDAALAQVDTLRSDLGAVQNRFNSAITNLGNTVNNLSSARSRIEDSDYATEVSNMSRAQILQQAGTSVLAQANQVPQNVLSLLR

Binder | Kd [1] | Kd [2] | binding result [3] | IC50 [4]
human mAb 763 (antibody, V domains shown) VH: EVQLLESGGALVQPGGSLRLSCAASGFTFSSYAMSWARQAPGKGLEWLSGISGSADNTYYAESVKGRFTTSRDNSMNMLYLQMNSLRDEDTAFYYCAKGDQDRGPLEFWGQGTLVTVSS VL: SYELTQPPSVSVSPGQTARITCSGDALPKQYAYWYQQKPGQAPVLLIYQDTKRPSGIPERFSGSSSGTTVALTISGVQAEDEADYYCQSADSNDSYYVFGTGTKVTVL | ~0.1 nM | ~1000 nM | binds | –
murine mAb 741 (antibody, V domains shown, also called mouse control antibody) VH: QVQLQQSGAELVGPGASVTLSCKASGHTFTDYEMHWVKQTPVHGLEWIGGIDPETGGTAYNQKLKGEATLTADKSSNTAYMELRSLTSEDSAVYYCTIYLDYWGRGTTLTVSS VL: QIVLTQSPAIMSASPGEKVTMTCSANSSINYMHWYQQKPGTSPKRWIYDTTILASGVPARFSGSGSGTSYSLTISSMEAEDAATYYCHQRSSYPFTFGSGTKLEIK | – | – | – | 1.9 µg/mL
